Residue numbers refer to the chain shown, from its start.
Key:
human c-Met receptor = human c-Met receptor (human, UniProt P08581 25-1390); experiment: cell-based or functional assay
C-Met-Rluc = C-Met-Rluc (R. reniformis, UniProt P08581 25-1390); experiment: cell-based or functional assay
C-Met-Rluc, sequence (P08581 25-1390): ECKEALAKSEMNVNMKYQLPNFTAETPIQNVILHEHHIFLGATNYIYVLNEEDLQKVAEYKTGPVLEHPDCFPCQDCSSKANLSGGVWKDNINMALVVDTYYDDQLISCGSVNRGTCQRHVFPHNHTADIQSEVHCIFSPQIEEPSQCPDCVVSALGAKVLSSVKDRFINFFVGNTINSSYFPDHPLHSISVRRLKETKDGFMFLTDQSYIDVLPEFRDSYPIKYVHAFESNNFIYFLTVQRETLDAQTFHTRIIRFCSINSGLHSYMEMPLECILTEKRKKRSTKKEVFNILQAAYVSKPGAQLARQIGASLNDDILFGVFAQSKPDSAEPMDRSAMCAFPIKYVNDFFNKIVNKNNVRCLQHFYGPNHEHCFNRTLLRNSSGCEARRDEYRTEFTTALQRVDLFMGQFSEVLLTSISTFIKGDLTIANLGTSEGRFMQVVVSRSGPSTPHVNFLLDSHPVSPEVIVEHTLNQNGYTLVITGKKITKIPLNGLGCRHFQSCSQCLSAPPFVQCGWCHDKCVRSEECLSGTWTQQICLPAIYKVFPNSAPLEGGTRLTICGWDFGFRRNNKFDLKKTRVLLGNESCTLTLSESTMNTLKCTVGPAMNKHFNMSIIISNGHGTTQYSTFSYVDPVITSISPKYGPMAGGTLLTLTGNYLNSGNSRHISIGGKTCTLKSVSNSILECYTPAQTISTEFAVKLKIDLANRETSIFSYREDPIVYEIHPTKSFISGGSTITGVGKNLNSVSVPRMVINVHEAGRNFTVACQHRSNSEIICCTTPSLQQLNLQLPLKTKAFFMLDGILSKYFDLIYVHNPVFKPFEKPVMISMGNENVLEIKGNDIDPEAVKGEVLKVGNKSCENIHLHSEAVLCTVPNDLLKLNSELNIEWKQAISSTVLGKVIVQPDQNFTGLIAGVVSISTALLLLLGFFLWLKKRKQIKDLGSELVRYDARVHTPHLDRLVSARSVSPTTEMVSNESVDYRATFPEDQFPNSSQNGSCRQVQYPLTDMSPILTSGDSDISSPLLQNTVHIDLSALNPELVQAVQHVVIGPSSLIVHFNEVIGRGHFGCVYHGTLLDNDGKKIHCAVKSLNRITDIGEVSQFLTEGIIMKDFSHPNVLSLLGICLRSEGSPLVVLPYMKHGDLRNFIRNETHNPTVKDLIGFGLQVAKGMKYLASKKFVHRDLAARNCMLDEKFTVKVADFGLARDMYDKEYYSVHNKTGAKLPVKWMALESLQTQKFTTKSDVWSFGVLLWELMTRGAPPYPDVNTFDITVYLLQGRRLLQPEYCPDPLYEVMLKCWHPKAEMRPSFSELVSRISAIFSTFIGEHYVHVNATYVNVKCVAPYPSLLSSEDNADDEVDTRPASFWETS

human c-Met receptor, sequence (P08581 25-1390): as above

B1: [224G11] [Hz1] (antibody, V domains shown)
VH: QVQLVQSGAEVKKPGASVKVSCKASGYIFTAYTMHWVRQAPGQGLEWMGWIKPNNGLANYAQKFQGRVTMTRDTSISTAYMELSRLRSDDTAVYYCARSEITTEFDYWGQGTLVTVSS
VL: DIVLTQSPDSLAVSLGERATINCKSSESVDSYANSFMHWYQQKPGQPPKLLIYRASTRESGVPDRFSGSGSRTDFTLTISSLQAEDVAVYYCQQSKEDPLTFGGGTKVEIKR
inhibition of HGF-induced proliferation of NCI-H441 cells ([3H]thymidine), FIG. 14A (human c-Met receptor): ~46%

B2: [224G11] [TH7 Hz3] (antibody, human IgG1, V domains shown)
VH: B1 VH
VL: B1 VL with L4M, M37L, R72G
inhibition of HGF-induced proliferation of NCI-H441 cells ([3H]thymidine), FIG. 15 (human c-Met receptor): 76% | inhibition of HGF induced BRET signal, c-Met activation model (C-Met-Rluc): 57.9% | inhibition of HGF induced BRET signal, c-Met dimerization model (C-Met-Rluc): 49.4%

B3: [224G11] [Hz2] (antibody, V domains shown)
VH: B1 VH
VL: B1 VL with L4M, R72G
inhibition of HGF-induced proliferation of NCI-H441 cells ([3H]thymidine), FIG. 14A (human c-Met receptor): ~30%

B4: [224G11] [Hz3] (antibody, V domains shown)
VH: B1 VH
VL: B1 VL with L4M, M37L, R72G
inhibition of HGF-induced proliferation of NCI-H441 cells ([3H]thymidine), FIG. 14A (human c-Met receptor): ~35%

B5: [224G11] [TH7 Hz2] (antibody, human IgG1, V domains shown)
VH: B1 VH
VL: B1 VL with L4M, R72G
inhibition of HGF induced BRET signal, c-Met activation model (C-Met-Rluc): 41.8% | inhibition of HGF induced BRET signal, c-Met dimerization model (C-Met-Rluc): 35.8%

B6: [224G11] [TH7 Hz1] (antibody, human IgG1, V domains shown)
VH: B1 VH
VL: B1 VL
inhibition of HGF-induced proliferation of NCI-H441 cells ([3H]thymidine), FIG. 15 (human c-Met receptor): 67% | inhibition of HGF induced BRET signal, c-Met activation model (C-Met-Rluc): 59.9% | inhibition of HGF induced BRET signal, c-Met dimerization model (C-Met-Rluc): 52.2%

B7: murine 224G11 Mab (antibody, V domains shown)
VH: EVQLQQSGPELVKPGASVKISCKTSGYIFTAYTMHWVRQSLGESLDWIGGIKPNNGLANYNQKFKGKATLTVDKSSSTAYMDLRSLTSEDSAVYYCARSEITTEFDYWGQGTALTVSS
VL: DIVLTQSPASLAVSLGQRATISCRASESVDSYANSFMHWYQQKPGQPPKLLIYRASNLESGIPARFSGSGSRTDFTLTINPVEADDVATYYCQQSKEDPLTFGSGTKLEMKR
inhibition of HGF-induced proliferation of NCI-H441 cells ([3H]thymidine), FIG. 14A (human c-Met receptor): 66% | inhibition of HGF-induced proliferation of NCI-H441 cells ([3H]thymidine), FIG. 14B (human c-Met receptor): 57% | inhibition of HGF-induced proliferation of NCI-H441 cells ([3H]thymidine), FIG. 15 (human c-Met receptor): 74% | inhibition of HGF induced BRET signal, c-Met activation model (C-Met-Rluc): 56.4% | inhibition of HGF induced BRET signal, c-Met dimerization model (C-Met-Rluc): 59.4%

B8: [224G11] [MUP9H chim] (antibody, V domains shown)
VH: B7 VH
VL: B7 VL
inhibition of HGF-induced proliferation of NCI-H441 cells ([3H]thymidine), FIG. 14B (human c-Met receptor): 78% | BRET signal with Mab alone, c-Met activation model (C-Met-Rluc): 7.6% | inhibition of HGF induced BRET signal, c-Met activation model (C-Met-Rluc): 64.4% | inhibition of HGF induced BRET signal, c-Met dimerization model (C-Met-Rluc): 64.4%

B9: [224G11]chim (antibody, human IgG1, V domains shown)
VH: B7 VH
VL: B7 VL
inhibition of HGF-induced proliferation of NCI-H441 cells ([3H]thymidine), FIG. 14A (human c-Met receptor): 19% | inhibition of HGF-induced proliferation of NCI-H441 cells ([3H]thymidine), FIG. 15 (human c-Met receptor): 33% | inhibition of HGF induced BRET signal, c-Met activation model (C-Met-Rluc): 34.5% | inhibition of HGF induced BRET signal, c-Met dimerization model (C-Met-Rluc): 28.9%

B10: [224G11] [MMCH chim] (antibody, V domains shown)
VH: B7 VH
VL: B7 VL
inhibition of HGF-induced proliferation of NCI-H441 cells ([3H]thymidine), FIG. 14B (human c-Met receptor): 84% | BRET signal with Mab alone, c-Met activation model (C-Met-Rluc): -2% | inhibition of HGF induced BRET signal, c-Met activation model (C-Met-Rluc): 53.2% | inhibition of HGF induced BRET signal, c-Met dimerization model (C-Met-Rluc): 52.5%

B11: [224G11] [MH chim] (antibody, V domains shown)
VH: B7 VH
VL: B7 VL
inhibition of HGF-induced proliferation of NCI-H441 cells ([3H]thymidine), FIG. 14B (human c-Met receptor): 79% | BRET signal with Mab alone, c-Met activation model (C-Met-Rluc): 5.1% | inhibition of HGF induced BRET signal, c-Met activation model (C-Met-Rluc): 59.7% | inhibition of HGF induced BRET signal, c-Met dimerization model (C-Met-Rluc): 61.8%

B12: [224G11] [TH7 chim] (antibody, human IgG1)
heavy: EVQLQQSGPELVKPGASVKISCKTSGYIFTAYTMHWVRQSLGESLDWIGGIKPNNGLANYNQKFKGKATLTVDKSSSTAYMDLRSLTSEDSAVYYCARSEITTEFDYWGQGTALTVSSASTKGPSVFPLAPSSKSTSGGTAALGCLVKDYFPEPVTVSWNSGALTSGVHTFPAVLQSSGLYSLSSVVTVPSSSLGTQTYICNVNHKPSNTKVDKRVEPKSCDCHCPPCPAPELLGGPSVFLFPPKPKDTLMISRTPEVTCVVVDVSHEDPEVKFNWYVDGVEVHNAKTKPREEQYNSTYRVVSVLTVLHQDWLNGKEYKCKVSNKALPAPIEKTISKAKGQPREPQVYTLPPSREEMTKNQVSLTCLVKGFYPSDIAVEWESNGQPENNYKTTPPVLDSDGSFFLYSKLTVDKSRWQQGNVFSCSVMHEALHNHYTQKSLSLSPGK
light: DIVLTQSPASLAVSLGQRATISCRASESVDSYANSFMHWYQQKPGQPPKLLIYRASNLESGIPARFSGSGSRTDFTLTINPVEADDVATYYCQQSKEDPLTFGSGTKLEMKRTVAAPSVFIFPPSDEQLKSGTASVVCLLNNFYPREAKVQWKVDNALQSGNSQESVTEQDSKDSTYSLSSTLTLSKADYEKHKVYACEVTHQGLSSPVTKSFNRGEC
inhibition of HGF-induced proliferation of NCI-H441 cells ([3H]thymidine), FIG. 14B (human c-Met receptor): 93% | inhibition of HGF-induced proliferation of NCI-H441 cells ([3H]thymidine), FIG. 15 (human c-Met receptor): 81% | BRET signal with Mab alone, c-Met activation model (C-Met-Rluc): -6.9% | inhibition of HGF induced BRET signal, c-Met activation model (C-Met-Rluc): 73.8% | inhibition of HGF induced BRET signal, c-Met dimerization model (C-Met-Rluc): 64.4%

B13: [224G11] [IgG2 chim] (antibody)
heavy: EVQLQQSGPELVKPGASVKISCKTSGYIFTAYTMHWVRQSLGESLDWIGGIKPNNGLANYNQKFKGKATLTVDKSSSTAYMDLRSLTSEDSAVYYCARSEITTEFDYWGQGTALTVSSASTKGPSVFPLAPCSRSTSESTAALGCLVKDYFPEPVTVSWNSGALTSGVHTFPAVLQSSGLYSLSSVVTVPSSNFGTQTYTCNVDHKPSNTKVDKTVERKCCVECPPCPAPPVAGPSVFLFPPKPKDTLMISRTPEVTCVVVDVSHEDPEVQFNWYVDGVEVHNAKTKPREEQFNSTFRVVSVLTVVHQDWLNGKEYKCKVSNKGLPAPIEKTISKTKGQPREPQVYTLPPSREEMTKNQVSLTCLVKGFYPSDIAVEWESNGQPENNYKTTPPMLDSDGSFFLYSKLTVDKSRWQQGNVFSCSVMHEALHNHYTQKSLSLSPG
light: B12 light
inhibition of HGF induced BRET signal, c-Met dimerization model (C-Met-Rluc): 62.4%
